In assay [1] the target is T1, huCDH19(44-772), Flag-tagged, on 293T cells (human, UniProt Q9H159 44-772).
T1 construct: Expressed with native leader (1-43) followed by a Flag tag; leader left out; also called Hu EC1-5
As to the kind of experiment: FACS, transfected 293T. (In general: Flow cytometry measures light scatter and fluorescence of single cells or particles in a stream.)
Description: (§1) The following binding assay was completed in presence of 2 mM CaCl2. […] Cells were then washed one time and the amount of cell associated Alexa647-labelled Ab was quantitated by flow cytometry. The experiments included mock transfected controls.

The target of assay [2] is T2, ckCDH19(1-43)::FLAG::ckCDH19(44-776), on 293T cells (chicken).
T2 construct: Entry holds leader (1-43), Flag tag and CDH19 part; leader left out; also called Ck EC1-5
T2 chain: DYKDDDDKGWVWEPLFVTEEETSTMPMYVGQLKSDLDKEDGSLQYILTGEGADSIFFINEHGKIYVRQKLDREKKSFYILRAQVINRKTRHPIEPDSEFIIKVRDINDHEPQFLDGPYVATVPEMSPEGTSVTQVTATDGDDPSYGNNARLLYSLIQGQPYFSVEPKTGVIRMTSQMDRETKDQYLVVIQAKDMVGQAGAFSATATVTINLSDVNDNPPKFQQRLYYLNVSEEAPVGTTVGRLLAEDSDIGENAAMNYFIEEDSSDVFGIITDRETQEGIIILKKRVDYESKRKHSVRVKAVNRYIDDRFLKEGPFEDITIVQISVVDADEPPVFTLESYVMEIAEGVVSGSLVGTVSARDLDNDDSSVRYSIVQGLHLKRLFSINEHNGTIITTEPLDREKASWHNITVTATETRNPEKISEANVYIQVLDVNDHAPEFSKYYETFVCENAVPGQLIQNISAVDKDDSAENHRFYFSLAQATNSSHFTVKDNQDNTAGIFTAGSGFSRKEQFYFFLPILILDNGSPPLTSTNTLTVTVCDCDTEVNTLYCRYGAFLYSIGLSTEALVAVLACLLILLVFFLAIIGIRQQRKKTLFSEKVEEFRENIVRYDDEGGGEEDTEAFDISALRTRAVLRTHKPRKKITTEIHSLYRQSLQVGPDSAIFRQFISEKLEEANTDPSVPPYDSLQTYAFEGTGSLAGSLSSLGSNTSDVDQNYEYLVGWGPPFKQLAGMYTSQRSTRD
The experiment in a line: FACS, transfected 293T.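 Further: antibody binding to chimera-expressing cells with 2 mM CaCl2 present, cell-bound Alexa647-labelled antibody read by flow cytometry, mock-transfected cells serving as control.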
Description: as §1

The target of assay [3] is T3, ckCDH19(1-43)::FLAG::ckCDH19(44-141)::huCDH19(142-249)::ckCDH19(250-776), on 293T cells (human/chicken chimera).
T3 construct: Entry holds leader (1-43), Flag tag and CDH19 part; leader left out; also called Hu EC2 (chicken backbone)
T3 chain: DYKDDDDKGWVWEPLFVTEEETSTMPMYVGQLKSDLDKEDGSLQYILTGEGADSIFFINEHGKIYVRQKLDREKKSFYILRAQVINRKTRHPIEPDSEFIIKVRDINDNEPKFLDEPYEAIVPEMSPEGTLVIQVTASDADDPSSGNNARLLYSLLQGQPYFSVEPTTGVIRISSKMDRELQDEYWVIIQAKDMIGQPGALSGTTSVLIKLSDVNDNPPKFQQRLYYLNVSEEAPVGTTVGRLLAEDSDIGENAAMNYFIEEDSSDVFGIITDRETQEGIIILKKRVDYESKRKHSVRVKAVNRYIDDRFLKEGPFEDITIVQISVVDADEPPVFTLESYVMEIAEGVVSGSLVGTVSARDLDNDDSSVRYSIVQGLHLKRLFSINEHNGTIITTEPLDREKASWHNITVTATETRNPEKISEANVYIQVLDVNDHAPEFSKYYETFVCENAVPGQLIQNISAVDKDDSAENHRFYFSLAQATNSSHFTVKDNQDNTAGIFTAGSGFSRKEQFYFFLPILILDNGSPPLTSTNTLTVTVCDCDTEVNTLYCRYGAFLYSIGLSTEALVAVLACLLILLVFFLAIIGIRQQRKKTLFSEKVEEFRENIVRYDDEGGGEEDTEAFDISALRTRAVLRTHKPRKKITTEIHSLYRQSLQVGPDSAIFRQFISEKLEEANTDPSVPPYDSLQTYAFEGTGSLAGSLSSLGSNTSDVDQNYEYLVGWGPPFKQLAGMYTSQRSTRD
The experiment in a line: FACS, transfected 293T.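 Further: antibody binding to chimera-expressing cells with 2 mM CaCl2 present, cell-bound Alexa647-labelled antibody read by flow cytometry, mock-transfected cells serving as control.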
Description: as §1

A further assay has as its target T4, Cyno Cadherin-19 (cynomolgus monkey (Macaca fascicularis), UniProt Q9H159 44-772 (human entry)).
T4 construct: also called cyno CDH19; cynomologous CDH-19
T4 chain: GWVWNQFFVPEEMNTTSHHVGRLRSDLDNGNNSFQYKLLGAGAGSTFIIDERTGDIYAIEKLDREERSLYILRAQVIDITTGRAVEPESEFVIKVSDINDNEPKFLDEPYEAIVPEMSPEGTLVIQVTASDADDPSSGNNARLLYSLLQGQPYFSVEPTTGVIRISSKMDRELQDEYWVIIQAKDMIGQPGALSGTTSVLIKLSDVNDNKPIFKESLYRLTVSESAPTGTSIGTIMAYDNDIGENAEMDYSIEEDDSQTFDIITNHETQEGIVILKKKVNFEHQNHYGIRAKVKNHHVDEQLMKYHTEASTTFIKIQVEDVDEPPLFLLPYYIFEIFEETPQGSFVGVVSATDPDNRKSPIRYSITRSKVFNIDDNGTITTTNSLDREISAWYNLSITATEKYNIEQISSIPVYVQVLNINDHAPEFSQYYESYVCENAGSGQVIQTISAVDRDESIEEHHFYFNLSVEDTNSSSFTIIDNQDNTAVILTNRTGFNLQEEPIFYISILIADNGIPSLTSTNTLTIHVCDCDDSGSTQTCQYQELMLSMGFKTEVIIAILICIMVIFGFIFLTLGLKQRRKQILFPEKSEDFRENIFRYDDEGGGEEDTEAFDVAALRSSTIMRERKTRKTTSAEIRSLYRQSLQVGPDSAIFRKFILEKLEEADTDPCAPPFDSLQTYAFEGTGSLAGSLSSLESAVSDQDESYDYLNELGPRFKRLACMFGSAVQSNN
As to the kind of experiment: FACS, recombinant cyno CDH19.

B1: hu anti-<huCDH19> 25F8.1 (1-469)(F90Y) VH::huIgG1z / 25F8.1 (1-235)(K45Q,S102A,D111E) VL::huLLC-C2 (Ab ID 14096) (antibody, V domains shown)
VH: QVQLVQSGAEVKKPGASVKVSCKASGYTFTSYYIHWVRQAPGQGLEWMGIINPSGGSTRYAQKFQGRVTMTRDTSTSTVYMELSSLRSEDTAVYYCARGGIQLWLHFDYWGQGTLVTVSS
VL: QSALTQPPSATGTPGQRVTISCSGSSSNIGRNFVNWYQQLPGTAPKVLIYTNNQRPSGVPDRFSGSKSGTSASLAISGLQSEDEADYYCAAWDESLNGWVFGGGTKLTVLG
notes: Engineered variant of 25F8
In the case of B1, the binding result in assay [1] was “binds”; in assay [2] it was “no binding (tested: 5 ug/ml)”; in assay [3], “no binding (tested: 5 ug/ml)”.

B2: hu anti-<huCDH19> 26D1.1 VH::huIgG1z / 26D1.1 VL::huLLC-C2 (Ab ID 13882) (antibody, V domains shown)
VH: QVQLVQSGAEVKKPGASVKVSCKASRYTFTSYYMSWVRQAPGQGLEWMGIIHPSGGDTTYAQKFQGRVTMTGDTSTSTVYMELSSLRSEDTAVYYCARGGIKLWLHFDYWGQGTLVTVSS
VL: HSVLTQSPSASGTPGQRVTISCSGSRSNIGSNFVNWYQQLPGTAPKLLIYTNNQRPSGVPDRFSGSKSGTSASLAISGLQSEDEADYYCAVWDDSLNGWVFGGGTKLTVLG
For the molecule B2, the binding result in assay [1] was “binds”; in assay [2] it was “no binding (tested: 5 ug/ml)”; in assay [3], “no binding (tested: 5 ug/ml)”; in the assay with Cyno Cadherin-19 it was “binds”.

B3: anti-CDH19 antibody 4A2 (Ab ID 13592) (antibody, human IgG1, kappa, V domains shown)
VH: QVQLQESGPGLVKPSQTLSLTCTVSGGSISSSGYYWSWIRQHPGKGLEWIGYIYYTGSAYYNPSLKSRVTISVDTSKNQFSLKLSSVTAADTAVYYCARDGSSGWYFQYWGQGTLVTVSS
VL: EIVLTQSPGTLSLSPGERATLSCRASRNISSSYLAWYQQKPGQAPRLLIYGPSSRATGIPDRFSGSGSGTDFTLTISRLEPEDFTVYYCQQYGSSFTFGPGTKVDIKR
Turning to B3, the binding result in assay [2] is given as “no binding (tested: 5 ug/ml)”; in assay [3] it was “no binding (tested: 5 ug/ml)”; with Cyno Cadherin-19, “binds”.

B4: anti-CDH19 antibody 2G6 (Ab ID 13588) (antibody, human IgG1, lambda, V domains shown)
VH: QVQLVESGGGVVQPGRSLRLSCAASGFTFSSYGMHWVRQAPGKGLEWVAFIWYDGSNKYYADSVKDRFTISRDNSKNTLYLQMKSLRAEDTAVYYCARRAGIIGTIGYYYGMDVWGQGTTVTVSS
VL: SYELTQPPSVSVSPGQTASITCSGDRLGEKYTCWYQQRPGQSPLLVIYQDTKRPSGIPERFSGSNSGNTATLTISGTQAMDEADYYCQAWDSSTVVFGGGTKLTVLG
In the case of B4, the binding result is on record as “binds” in assay [1], “no binding (tested: 5 ug/ml)” in assay [2], “no binding (tested: 5 ug/ml)” in assay [3] and “binds” with Cyno Cadherin-19.

B5: hu anti-<huCDH19> 23A10.3 (1-474)(L92Q) VH::huIgG1z / 23A10.3 (1-231)(C42S) VL::huLLC-C2 (Ab ID 14077) (antibody, V domains shown)
VH: QVQLVESGGGVVQPGRSLRLSCAASGFTFSRYGIHWVRQAPGKGLEWVAVIWYDGSNKYYADSVKGRFTISRDNSKNTLYLQMNSLRAEDSAVYYCARRAGIPGTTGYYYGMDVWGQGTTVTVSS
VL: SYELTQPPSVSVSPGQTASITCSGDRLGEKYVSWYQQKPGQSPILVIYQDNKWPSGIPERFSGSNSGNTATLTISGTQAMDEADYYCQAWDSSTVVFGGGTKLTVLG
notes: Engineered variant of 23A10
Consider B5, for which the binding result in assay [1] was “binds”; in assay [2], “no binding (tested: 5 ug/ml)”; in assay [3] it was “no binding (tested: 5 ug/ml)”.

B6: hu anti-<huCDH19> 4A9 VH::huIgG1z / 4A9 VL::huLLC-C1 (Ab ID 13589) (antibody, V domains shown)
VH: QVQLQESGPGLVKPSETLSLTCTVSGGSISGYYWSWIRQPPGKGLEWFAYFSYSGSTNYNPSLKSRVTLSVDTSKNQFSLKLSSVTAADTAVYYCARNWAFHFDFWGQGTLVTVSS
VL: QSVLTQPPSVSGAPGQRVTISCTGSSSNIGTGYAVHWYQQFPGTAPKLLIYGNNNRPSGVPDRFSGSKSGTSASLAITGLQAEDEADYYCQSYDSRLSGWVFGGGTKLTVLG
notes: Recombinant fully human IgG1
Turning to B6, the binding result in assay [1] is “binds”; in assay [2], “no binding (tested: 5 ug/ml)”; in assay [3] it was “no binding (tested: 5 ug/ml)”; in the assay with Cyno Cadherin-19, “binds”.

B7: hu anti-<huCDH19> 4B10 VH::huIgG1z / 4B10 VL::huKLC (Ab ID 13590) (antibody, V domains shown)
VH: QVQLVESGGGVVQPGRSLRLSCAASGFTFSSYDMHWVRQAPGKGLEWVAVISYDGTNEYYADSVKGRFTISRDTSKNTLYLQMNSLRAEDTAVYYCARERYFDWSFDYWGQGTLVSVSS
VL: EIVLTQSPGTLSLSPGERATLSCRASQSVSNTYLAWYHQRPGQAPRLLIYGASSRATGIPDRFSGSGSGTDFALTISSLEPEDFAVYYCQQYSNSWTFGQGTKVEIKR
For the molecule B7, the binding result in assay [1] is reported as “binds”; in assay [2] it was “no binding (tested: 5 ug/ml)”; in assay [3] it was “no binding (tested: 5 ug/ml)”; with Cyno Cadherin-19, “binds”.
